B1: Rad50 (S. cerevisiae, FLAG-tagged at the C terminus) [S. cerevisiae] / MBP-Rif2 (S. cerevisiae Rif2, wild type) [S. cerevisiae] (parent complex)
chain 1: MSAIYKLSIQGIRSFDSNDRETIEFGKPLTLIVGMNGSGKTTIIECLKYATTGDLPPNSKGGVFIHDPKITGEKDIRAQVKLAFTSANGLNMIVTRNIQLLMKKTTTTFKTLEGQLVAINNSGDRSTLSTRSLELDAQVPLYLGVPKAILEYVIFCHQEDSLWPLSEPSNLKKKFDEIFQAMKFTKALDNLKSIKKDMSVDIKLLKQSVEHLKLDKDRSKAMKLNIHQLQTKIDQYNEEVSEIESQLNEITEKSDKLFKSNQDFQKILSKVENLKNTKLSISDQVKRLSNSIDILDLSKPDLQNLLANFSKVLMDKNNQLRDLETDISSLKDRQSSLQSLSNSLIRRQGELEAGKETYEKNRNHLSSLKEAFQHKFQGLSNIENSDMAQVNHEMSQFKAFISQDLTDTIDQFAKDIQLKETNLSDLIKSITVDSQNLEYNKKDRSKLIHDSEELAEKLKSFKSLSTQDSLNHELENLKTYKEKLQSWESENIIPKLNQKIEEKNNEMIILENQIEKFQDRIMKTNQQADLYAKLGLIKKSINTKLDELQKITEKLQNDSRIRQVFPLTQEFQRADLEMDFQKLFINMQKNIAINNKKMHELDRRYTNALYNLNTIEKDLQDNQKSKEKVIQLLSENLPEDCTIDEYNDVLEETELSYKTALENLKMHQTTLEFNRKALEIAERDSCCYLCSRKFENESFKSKLLQELKTKTDANFEKTLKDTVQNEKEYLHSLRLLEKHIITLNSINEKIDNSQKCLEKAKEETKTSKSKLDELEVDSTKLKDEKELAESEIRPLIEKFTYLEKELKDLENSSKTISEELSIYNTSEDGIQTVDELRDQQRKMNDSLRELRKTISDLQMEKDEKVRENSRMINLIKEKELTVSEIESSLTQKQNIDDSIRSKRENINDIDSRVKELEARIISLKNKKDEAQSVLDKVKNERDIQVRNKQKTVADINRLIDRFQTIYNEVVDFEAKGFDELQTTIKELELNKAQMLELKEQLDLKSNEVNEEKRKLADSNNEEKNLKQNLELIELKSQLQHIESEISRLDVQNAEAERDKYQEESLRLRTRFEKLSSENAGKLGEMKQLQNQIDSLTHQLRTDYKDIEKNYHKEWVELQTRSFVTDDIDVYSKALDSAIMKYHGLKMQDINRIIDELWKRTYSGTDIDTIKIRSDEVSSTVKGKSYNYRVVMYKQDVELDMRGRCSAGQKVLASIIIRLALSETFGANCGVIALDEPTTNLDEENIESLAKSLHNIINMRRHQKNFQLIVITHDEKFLGHMNAAAFTDHFFKVKRDDRQKSQIEWVDINRVTY
chain 2: MEHVDSDFAPIRRSKKVVDSDKIVKAISDDLEQKNFTVLRKLNLVPIKKSVSSPKVCKPSPVKERVDHVFYQKFKSMALQELGTNYLSISYVPSLSKFLSKNLRSMKNCIVFFDKVEHIHQYAGIDRAVSETLSLVDINVVIIEMNDYLMKEGIQSSKSKECIESMGQASYSGQLDFEASEKPSNHTSDLMMMVMRKINNDESIDHIVYFKFEQLDKLSTSTIIEPSKLTEFINVLSVLEKSNNIAFKVLIYSNNVSISSLLSTSLKKKLNTKYTVFEMPILTCAQEQEYLKKMIKFTFDSGSKLLQSYNSLVTCQLNNKESNLAIFFEFLKVFPHPFTYLFNAYTEIIVQSRTFDELLDKIRNRLTIKNYPHSAYNFKKNQRLPLKLTRKVHDR

Variants of: B1
Assay: pull-down (amylose-immobilized MBP-Rif2 bait, Western blot with anti-Rad50 antibody, quantified); three independent blots; mean with SEM; parent: 100; read off a plot

Row | Variant | percent of parent [Relative value]
1 | chain 1 K81I | ~16

Source: PMC8219681, “Inhibition of MRN activity by a telomere protein motif” (Nature Communications, 2021)
